Measured values taken from article PMC2745324 (Biochemistry, 2009).
Where two headings read alike, the source gives them in different places. One block for each molecule: values may come before it.

Key:
[1] = biological target: human adenylosuccinate lyase K246E mutant (human) (UniProt P30566)
[2] = biological target: human adenylosuccinate lyase K246E mutant (human) (UniProt P30566); experiment: AUC
[3] = biological target: the molecule itself; experiment: AUC
[4] = biological target: the molecule itself; experiment: SEC
[5] = biological target: the molecule itself; experiment: AUC; remark: listed apart in the source
[6] = biological target: the molecule itself; experiment: AUC; remark: listed apart in the source

Vmax of SAMP cleavage at 25 °C [1]: 0.23 µmol/min/mg
percent as dimer (D-12mer model) [2]: 94%
stoichiometry N [2]: 2
Molecule: human adenylosuccinate lyase K246E mutant (from UniProt P30566 1-481) (enzyme)

B1: human adenylosuccinate lyase, wild type (enzyme)
chain: MAAGGDHGSPDSYRSPLASRYASPEMCFVFSDRYKFRTWRQLWLWLAEAEQTLGLPITDEQIQEMKSNLENIDFKMAAEEEKRLRHDVMAHVHTFGHCCPKAAGIIHLGATSCYVGDNTDLIILRNALDLLLPKLARVISRLADFAKERASLPTLGFTHFQPAQLTTVGKRCCLWIQDLCMDLQNLKRVRDDLRFRGVKGTTGTQASFLQLFEGDDHKVEQLDKMVTEKAGFKRAFIITGQTYTRKVDIEVLSVLASLGASVHKICTDIRLLANLKEMEEPFEKQQIGSSAMPYKRNPMRSERCCSLARHLMTLVMDPLQTASVQWFERTLDDSANRRICLAEAFLTADTILNTLQNISEGLVVYPKVIERRIRQELPFMATENIIMAMVKAGGSRQDCHEKIRVLSQQAASVVKQEGGDNDLIERIQVDAYFSPIHSQLDHLLDPSSFTGRASQQVQRFLEEEVYPLLKPYESVMKVKAE
percent as monomer (M-Tet model) [3]: 32%
percent as tetramer (M-Tet model) [3]: 68%
stoichiometry N [4]: 4
percent as monomer (M-Tet model) [5]: 20%
percent as tetramer (M-Tet model) [5]: 80%

B2: human adenylosuccinate lyase R396H mutant (enzyme)
chain: MAAGGDHGSPDSYRSPLASRYASPEMCFVFSDRYKFRTWRQLWLWLAEAEQTLGLPITDEQIQEMKSNLENIDFKMAAEEEKRLRHDVMAHVHTFGHCCPKAAGIIHLGATSCYVGDNTDLIILRNALDLLLPKLARVISRLADFAKERASLPTLGFTHFQPAQLTTVGKRCCLWIQDLCMDLQNLKRVRDDLRFRGVKGTTGTQASFLQLFEGDDHKVEQLDKMVTEKAGFKRAFIITGQTYTRKVDIEVLSVLASLGASVHKICTDIRLLANLKEMEEPFEKQQIGSSAMPYKRNPMRSERCCSLARHLMTLVMDPLQTASVQWFERTLDDSANRRICLAEAFLTADTILNTLQNISEGLVVYPKVIERRIRQELPFMATENIIMAMVKAGGSHQDCHEKIRVLSQQAASVVKQEGGDNDLIERIQVDAYFSPIHSQLDHLLDPSSFTGRASQQVQRFLEEEVYPLLKPYESVMKVKAE
stoichiometry N [6]: 4
percent as monomer (M-Tet model) [3]: 34%
percent as tetramer (M-Tet model) [3]: 66%

B3: human adenylosuccinate lyase R194C mutant (enzyme)
chain: MAAGGDHGSPDSYRSPLASRYASPEMCFVFSDRYKFRTWRQLWLWLAEAEQTLGLPITDEQIQEMKSNLENIDFKMAAEEEKRLRHDVMAHVHTFGHCCPKAAGIIHLGATSCYVGDNTDLIILRNALDLLLPKLARVISRLADFAKERASLPTLGFTHFQPAQLTTVGKRCCLWIQDLCMDLQNLKRVRDDLCFRGVKGTTGTQASFLQLFEGDDHKVEQLDKMVTEKAGFKRAFIITGQTYTRKVDIEVLSVLASLGASVHKICTDIRLLANLKEMEEPFEKQQIGSSAMPYKRNPMRSERCCSLARHLMTLVMDPLQTASVQWFERTLDDSANRRICLAEAFLTADTILNTLQNISEGLVVYPKVIERRIRQELPFMATENIIMAMVKAGGSRQDCHEKIRVLSQQAASVVKQEGGDNDLIERIQVDAYFSPIHSQLDHLLDPSSFTGRASQQVQRFLEEEVYPLLKPYESVMKVKAE
percent as monomer (M-Tet model) [3]: 33%
percent as tetramer (M-Tet model) [3]: 67%
stoichiometry N [4]: 4
percent as monomer (M-Tet model) [5]: 37%
percent as tetramer (M-Tet model) [5]: 63%

B4: human adenylosuccinate lyase L311V mutant (enzyme)
chain: MAAGGDHGSPDSYRSPLASRYASPEMCFVFSDRYKFRTWRQLWLWLAEAEQTLGLPITDEQIQEMKSNLENIDFKMAAEEEKRLRHDVMAHVHTFGHCCPKAAGIIHLGATSCYVGDNTDLIILRNALDLLLPKLARVISRLADFAKERASLPTLGFTHFQPAQLTTVGKRCCLWIQDLCMDLQNLKRVRDDLRFRGVKGTTGTQASFLQLFEGDDHKVEQLDKMVTEKAGFKRAFIITGQTYTRKVDIEVLSVLASLGASVHKICTDIRLLANLKEMEEPFEKQQIGSSAMPYKRNPMRSERCCSLARHVMTLVMDPLQTASVQWFERTLDDSANRRICLAEAFLTADTILNTLQNISEGLVVYPKVIERRIRQELPFMATENIIMAMVKAGGSRQDCHEKIRVLSQQAASVVKQEGGDNDLIERIQVDAYFSPIHSQLDHLLDPSSFTGRASQQVQRFLEEEVYPLLKPYESVMKVKAE
percent as monomer (M-Tet model) [3]: 32%
percent as tetramer (M-Tet model) [3]: 68%
stoichiometry N [4]: 4
percent as monomer (M-Tet model) [5]: 40%
percent as tetramer (M-Tet model) [5]: 60%

B5: human adenylosuccinate lyase R396C mutant (enzyme)
chain: MAAGGDHGSPDSYRSPLASRYASPEMCFVFSDRYKFRTWRQLWLWLAEAEQTLGLPITDEQIQEMKSNLENIDFKMAAEEEKRLRHDVMAHVHTFGHCCPKAAGIIHLGATSCYVGDNTDLIILRNALDLLLPKLARVISRLADFAKERASLPTLGFTHFQPAQLTTVGKRCCLWIQDLCMDLQNLKRVRDDLRFRGVKGTTGTQASFLQLFEGDDHKVEQLDKMVTEKAGFKRAFIITGQTYTRKVDIEVLSVLASLGASVHKICTDIRLLANLKEMEEPFEKQQIGSSAMPYKRNPMRSERCCSLARHLMTLVMDPLQTASVQWFERTLDDSANRRICLAEAFLTADTILNTLQNISEGLVVYPKVIERRIRQELPFMATENIIMAMVKAGGSCQDCHEKIRVLSQQAASVVKQEGGDNDLIERIQVDAYFSPIHSQLDHLLDPSSFTGRASQQVQRFLEEEVYPLLKPYESVMKVKAE
stoichiometry N [6]: 4
percent as monomer (M-Tet model) [3]: 40%
percent as tetramer (M-Tet model) [3]: 60%
percent as monomer (M-Tet model) [5]: 32%
percent as tetramer (M-Tet model) [5]: 68%
